US20220041738A1 (SAITAMA MEDICAL UNIVERSITY, published 2022)

How the values were obtained:
Test in all cases: immunofluorescence (legend of FIG. 4)
[1] = molecular target: T1, human ALK2-L196P on cells (human, UniProt Q04771 21-509)
T1 sequence: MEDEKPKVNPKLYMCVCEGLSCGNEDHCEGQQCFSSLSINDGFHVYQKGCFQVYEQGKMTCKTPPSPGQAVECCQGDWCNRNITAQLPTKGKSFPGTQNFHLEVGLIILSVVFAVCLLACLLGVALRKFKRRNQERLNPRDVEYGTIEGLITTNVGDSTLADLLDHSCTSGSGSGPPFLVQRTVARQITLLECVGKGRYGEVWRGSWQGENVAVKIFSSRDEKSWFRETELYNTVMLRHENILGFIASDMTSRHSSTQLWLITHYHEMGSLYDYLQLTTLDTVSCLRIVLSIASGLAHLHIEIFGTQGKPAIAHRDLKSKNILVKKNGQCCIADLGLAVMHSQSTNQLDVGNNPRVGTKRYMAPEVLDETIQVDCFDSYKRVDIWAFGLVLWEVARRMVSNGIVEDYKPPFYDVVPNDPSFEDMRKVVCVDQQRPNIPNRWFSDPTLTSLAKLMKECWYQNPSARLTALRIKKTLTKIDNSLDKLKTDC
Procedure, shortened: (§1)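 C2C12 mouse myoblasts transfected overnight with human ALK2 cDNA (wild-type or FOP variants incl. G325A, pcDEF3 vector). Cells formalin-fixed, goat-serum blocked, stained 1 h RT with purified IgG at 10 µg/mL, then Alexa 594 anti-rat IgG 1 h; DAPI nuclei, fluorescence microscopy read-out.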

[2] = molecular target: T2, human ALK2-G325A on cells (human, UniProt Q04771 21-509)
T2 sequence: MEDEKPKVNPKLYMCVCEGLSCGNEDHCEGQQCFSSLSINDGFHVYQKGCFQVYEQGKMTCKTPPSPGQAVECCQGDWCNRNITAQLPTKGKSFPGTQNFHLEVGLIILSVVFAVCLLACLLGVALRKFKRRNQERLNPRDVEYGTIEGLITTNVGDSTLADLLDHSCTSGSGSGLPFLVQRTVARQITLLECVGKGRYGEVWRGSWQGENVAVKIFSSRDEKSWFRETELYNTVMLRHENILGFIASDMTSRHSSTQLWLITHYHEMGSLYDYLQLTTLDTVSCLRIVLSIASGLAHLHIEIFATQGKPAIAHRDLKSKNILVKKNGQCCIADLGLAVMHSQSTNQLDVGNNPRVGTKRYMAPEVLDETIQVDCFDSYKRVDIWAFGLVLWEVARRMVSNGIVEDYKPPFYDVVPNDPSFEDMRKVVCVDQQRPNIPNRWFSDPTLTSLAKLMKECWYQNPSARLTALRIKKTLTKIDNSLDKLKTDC
Procedure, shortened: as §1

[3] = molecular target: T3, human ALK2-P197_F198delinsL on cells (human, UniProt Q04771 21-509)
T3 construct: also called delP197_F198insL
T3 sequence: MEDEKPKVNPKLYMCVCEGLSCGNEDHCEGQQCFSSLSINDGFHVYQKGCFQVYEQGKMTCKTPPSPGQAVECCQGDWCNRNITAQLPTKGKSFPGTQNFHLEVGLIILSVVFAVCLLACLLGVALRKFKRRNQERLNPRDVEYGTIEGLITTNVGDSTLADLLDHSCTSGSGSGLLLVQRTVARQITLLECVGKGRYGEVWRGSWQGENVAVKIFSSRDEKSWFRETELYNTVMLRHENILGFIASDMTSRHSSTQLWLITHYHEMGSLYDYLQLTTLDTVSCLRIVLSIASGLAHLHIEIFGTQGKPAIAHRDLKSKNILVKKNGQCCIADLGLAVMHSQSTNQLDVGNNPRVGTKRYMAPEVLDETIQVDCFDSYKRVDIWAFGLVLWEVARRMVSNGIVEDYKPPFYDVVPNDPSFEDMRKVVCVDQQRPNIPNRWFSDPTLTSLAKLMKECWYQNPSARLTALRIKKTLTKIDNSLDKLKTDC
Procedure, shortened: as §1

[4] = molecular target: T4, human ALK2-G356D on cells (human, UniProt Q04771 21-509)
T4 sequence: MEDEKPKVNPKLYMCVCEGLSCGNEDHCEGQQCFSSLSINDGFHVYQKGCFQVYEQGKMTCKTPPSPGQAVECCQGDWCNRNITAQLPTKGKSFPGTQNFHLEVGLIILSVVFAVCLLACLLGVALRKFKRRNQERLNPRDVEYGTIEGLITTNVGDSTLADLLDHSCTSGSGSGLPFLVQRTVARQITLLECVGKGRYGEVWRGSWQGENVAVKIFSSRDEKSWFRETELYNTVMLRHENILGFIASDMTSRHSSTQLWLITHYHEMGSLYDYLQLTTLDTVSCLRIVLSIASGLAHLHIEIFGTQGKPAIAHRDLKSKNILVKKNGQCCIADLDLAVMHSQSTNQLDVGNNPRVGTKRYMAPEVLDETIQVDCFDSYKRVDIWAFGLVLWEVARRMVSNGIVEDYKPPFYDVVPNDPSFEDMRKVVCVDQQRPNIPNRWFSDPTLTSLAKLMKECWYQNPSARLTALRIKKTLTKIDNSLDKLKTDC
Procedure, shortened: as §1

Measured: binding result

B1: rat anti-ALK2 monoclonal antibody A2-15A (antibody, V domains shown)
VH: EVQLVESGGGLVQPGRSLKLSCAASGFTFSHYYMAWVRQAPTKGLEWVASITNSGGSINYRDSVKGRFTISRDNAKSTLYLQMDSLRSEDTATYYCTREGGENYGGYPPFAYWGQGTLVTVSS
VL: DIVLTQSPALAVSLGQRATISCRANQGVSLSRYNLMHWYQQKPGQKPKLLIYRSSNLASGIPARFSGSGSGTDFTLTINPVQADDIATYYCQQSRESPFTFGAGTKLELKR
notes: Rat monoclonal IgG from a hybridoma; also called 15A6
binds: [1] | [2] | [3] | [4]

B2: rat anti-ALK2 monoclonal antibody A2-11E (antibody, V domains shown)
VH: EVQLVETGGGLVQPGRSLKLSCVASGFTFSNYYMYWIRQAPGKGLEWISSINTDGGSTYYPDSVKGRFAISRDNAENTVYLQMNSLRSEDTATYYCAKSTPNIPLAYWGQGTLVTVSS
VL: DIQMTQSPSLLSASVGDRVTLSCKASQNIYKYLNWFQQKLGEAPKLLIYYSNSLQTGIPSRFSGSGSGTDFTLTISSLQPEDVAIYFCFQYSSGPTFGPGTKLELKR
notes: Rat monoclonal IgG from a hybridoma; also called 11E2
binds: [1] | [2] | [3] | [4]
